From US20220403025A1

target: Vδ1 γδ T cell receptor on skin-derived γδ T cells (human); assay: cell-based or functional assay

| TCR downregulation (EC50 µg/ml - 3 donors) [µg/mL] | Binder |
| --- | --- |
| 0.849 | 1251_P02_G10 (IgG1) (antibody, V domains shown) VH: EVQLVESGGGLVQPGGSLRLSCAASGFTFSDYYMSWIRQAPGKGLEWVSYISSSGSTIYYADSVKGRFTISRDNAKNSLYLQMNSLRAEDTAVYYCARHSWNDAFDIWGRGTLVTVSS VL: DIQMTQSPSSLSASVGDRVTITCRASQSISSHLNWYQQKPGKAPKLLIYAASSLQSGVPSRFSASGSGTDFTLTISSLQPEDFATYYCQQSYSTLLTFGGGTKVEIKR |

target: L1 (DV1-GV4) antigen: soluble heterodimeric γδ TCR in leucine zipper format (TRDV1/TRGV4) (human); assay: DELFIA affinity ranking with 100 nM biotinylated L1
Sequence (main, as listed by the source): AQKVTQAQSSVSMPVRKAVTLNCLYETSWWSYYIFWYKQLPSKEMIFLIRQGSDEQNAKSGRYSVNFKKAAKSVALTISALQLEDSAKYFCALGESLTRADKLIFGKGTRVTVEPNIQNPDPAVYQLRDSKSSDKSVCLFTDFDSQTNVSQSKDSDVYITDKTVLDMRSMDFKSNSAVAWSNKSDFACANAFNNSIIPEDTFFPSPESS

| DELFIA signal, 100 nM L1 | Binder |
| --- | --- |
| 137000 | 1141_P01_E01 (scFv) (scFv) scFv: QVQLVQSGAEVKKPGESLKISCKGSGYSFTSYWIGWVRQMPGKGLEWMGIIYPGDSDTRYSPSFQGQVTISADKSISTAYLQWSSLKASDTAMYYCARHQVDTRTADYWGQGTLVTVSSGGGGSGGGGSGGGASQSALTQPASVSGSPGQSVTISCTGTRSDVGGYNYVSWYQHHPGKAPKLMIYEVSNRPSGVSNRFSGSKSGNTASLTISGLQAEDEADYYCSSYTSTSTLVFGGGTKLTVL |
| 65300 | 1251_P02_C05 (scFv) (scFv) scFv: EVQLLESGGGLVQPGGSLRLSCAASGFTFSSYAMSWVRQAPGKGLEWVSAISGGGGTTYSSDSVKGRFTISRDNSKNTLYLQMNSLRAEDTAVYYCARDSGVAFDIWGQGTLVTVSSGGGGSGGGGSGGGASDIQMTQSPSFLSASVGDRVTITCRASQNIRTWLAWYQQKPGRAPKLLIYDASSLESGVPSRFSGSGSGTDFTLTISSLQPEDFATYYCQQFKRYPPTFGLGTKVEIK |
| 5900 | 1245_P02_G04 (scFv) (scFv) scFv: QVQLQQSGPGLVKPSQTLSLTCAISGDSVSSKSAAWNWIRQSPSRGLEWLGRTYYRSKWSTDYAASVKSRITINPDTSKNQLSLQLNSVTPEDTAVYYCARTWSGYVDVWGQGTLVTVSSGGGGSGGGGSGGGASDIQMTQSPPALSASVGDRVTITCRASQDINDWLAWYQHKPGKAPKLLIYDASSLESGVPSRFSGSGSGTEFTLTISSLQPDDFATYYCQQSYSTPQVTFGQGTRLEIK |
| 17100 | 1251_P02_G10 (scFv) (scFv) scFv: EVQLVESGGGLVQPGGSLRLSCAASGFTFSDYYMSWIRQAPGKGLEWVSYISSSGSTIYYADSVKGRFTISRDNAKNSLYLQMNSLRAEDTAVYYCARHSWNDAFDIWGRGTLVTVSSGGGGSGGGGSGGGASDIQMTQSPSSLSASVGDRVTITCRASQSISSHLNWYQQKPGKAPKLLIYAASSLQSGVPSRFSASGSGTDFTLTISSLQPEDFATYYCQQSYSTLLTFGGGTKVEIK |
| 10400 | 1245_P02_F07 (scFv) (scFv) scFv: QVQLQQSGPGLVKPSQTLSLTCVISGDSVSSNSAAWNWIRQSPSRGLEWLGRTYYRSKWYNDYAVSVKSRITINPDTSKNQFSLQLNSVTPEDTAVYYCARDYYYSMDVWGQGTMVTVSSGGGGSGGGGSGGGASDIQMTQSPSTLSASVGDRVTITCRASQSISSWLAWYQQKPGKAPKLLIYDASSLESGVPLRFSGSGSGTEFTLTISSLQPDDFATYYCQQSHSHPPTFGPGTKVDIK |
| 1980 | 1252_P01_C08 (scFv) (scFv) scFv: EVQLLESGGGLVQPGRSLRLSCAASGFTVSSNYMSWVRQAPGKGLEWVSVIYSGGSTYYADSVKGRFTISRDNSKNTLYLQMNSLRAEDTAVYYCASPIELGAFDIWGQGTLVTVSSGGGGSGGGGSGGGASSYELTQPPSVSVAPGKTARITCGGNNIGSQSVHWYQQKPGQAPMLVIYYDSDRPSGIPERFSGSNSGNTATLTISRVEAGDEADYYCQVWDSSSDHVVFGGGTKLTVL |
| 18400 | 1245_P01_G09 (scFv) (scFv) scFv: QVQLQQSGPGLVKPSQTLSLTCAISGDSVSSNSAAWNWIRQSPSRGLEWLGRTYYGSKWYNEYALSVKSRIIINPDTSKNQFSLQLNSVTPEDTAVYYCARDYYYSMDVWGQGTLVTVSSGGGGSGGGGSGGGASDIVMTQSPSTLSASIGDRVTITCRAGQSISTWLAWYQQKPGKAPKLLIYDASSLESGVPLRFSGSGSGTEFTLAISSLQPDDFATYYCQQSYSTPVTFGQGTKVEIK |
| 23800 | 1139_P01_E04 (scFv) (scFv) scFv: QVQLQQSGPGLVKPSQTLSLTCAISGDSVSSNSAAWNWIRQSPSRGLEWLGRTYYRSKWYNDYAVSVRSRITINPDTSKNQFSLQLNSVTPEDTAVYYCARSWNDAFDIWGQGTTVTVSSGGGGSGGGGSGGGASDIVMTQSPSTLSASIGDRVTITCRAGQSISTWLAWYQQKPGKAPKLLIYDASSLESGVPLRFSGSGSGTDFTLTISSLQPEDFATYYCQQSYSTPLTFGGGTKVEIK |
| 163000 | 1245_P01_E07 (scFv) (scFv) scFv: QVQLVESGGGLVKPGGSLRLSCAASGFTFSDYYMSWIRQAPGKGLEWVSYISSSGSTIYYADSVKGRFTISRDNAKNSLYLQMNSLRAEDTAVYYCARVDYADAFDIWGQGTLVTVSSGGGGSGGGGSGGGASDIQMTQSPSSLSASVGDRVTIACRAGQSIGTYLNWYQQKPGKAPKLLIYVASSLQSGVPSRFSGSGSGTEFTLTISSLQPEDFATYYCQQSYSTLLTFGRGTKVEIK |

target: L1 (DV1-GV4) antigen: soluble heterodimeric γδ TCR in leucine zipper format (TRDV1/TRGV4) (human); assay: SPR (MASS-2), IgG captured via protein G, L1 as analyte, steady-state 1:1 fit

| Kd [nM] | Binder |
| --- | --- |
| 829 | 1251_P02_G10 (IgG1) (antibody, V domains shown) VH: EVQLVESGGGLVQPGGSLRLSCAASGFTFSDYYMSWIRQAPGKGLEWVSYISSSGSTIYYADSVKGRFTISRDNAKNSLYLQMNSLRAEDTAVYYCARHSWNDAFDIWGRGTLVTVSS VL: DIQMTQSPSSLSASVGDRVTITCRASQSISSHLNWYQQKPGKAPKLLIYAASSLQSGVPSRFSASGSGTDFTLTISSLQPEDFATYYCQQSYSTLLTFGGGTKVEIKR |

target: L1 (DV1-GV4) antigen: soluble heterodimeric γδ TCR in leucine zipper format (TRDV1/TRGV4) (human); assay: ELISA (DELFIA, time-resolved fluorometry) on antigen L1, titration of the mAb

| EC50 (read off the curve) [µg/mL] | Binder |
| --- | --- |
| 0.07 | 1245_P02_G04 (IgG1, made in HEK) (antibody, V domains shown) VH: QVQLQQSGPGLVKPSQTLSLTCAISGDSVSSKSAAWNWIRQSPSRGLEWLGRTYYRSKWSTDYAASVKSRITINPDTSKNQLSLQLNSVTPEDTAVYYCARTWSGYVDVWGQGTLVTVSS VL: DIQMTQSPPALSASVGDRVTITCRASQDINDWLAWYQHKPGKAPKLLIYDASSLESGVPSRFSGSGSGTEFTLTISSLQPDDFATYYCQQSYSTPQVTFGQGTRLEIK |
| 0.07 | AD3 (variant G04, made in CHO) (antibody, V domains shown) VH: EVQLQQSGPGLVKPSQTLSLTCAISGDSVSSKSAAWNWIRQSPSRGLEWLGRTYYRSKWSTDYAASVKSRITINPDTSKNQLSLQLNSVTPEDTAVYYCARTWSGYVDVWGQGTLVTVSS VL: DIQMTQSPPALSASVGDRVTITCRASQDINDWLAWYQHKPGKAPKLLIYDASSLESGVPSRFSGSGSGTEFTLTISSLQPDDFATYYCQQSYSTPQVTFGQGTRLEIK |
| 0.07 | AD3gly (defucosylated AD3 made in engineered CHO) (antibody, V domains shown) VH: EVQLQQSGPGLVKPSQTLSLTCAISGDSVSSKSAAWNWIRQSPSRGLEWLGRTYYRSKWSTDYAASVKSRITINPDTSKNQLSLQLNSVTPEDTAVYYCARTWSGYVDVWGQGTLVTVSS VL: DIQMTQSPPALSASVGDRVTITCRASQDINDWLAWYQHKPGKAPKLLIYDASSLESGVPSRFSGSGSGTEFTLTISSLQPDDFATYYCQQSYSTPQVTFGQGTRLEIK |
| 0.07 | AD4 (hinge modified AD3, made in CHO) (antibody, V domains shown) VH: EVQLQQSGPGLVKPSQTLSLTCAISGDSVSSKSAAWNWIRQSPSRGLEWLGRTYYRSKWSTDYAASVKSRITINPDTSKNQLSLQLNSVTPEDTAVYYCARTWSGYVDVWGQGTLVTVSS VL: DIQMTQSPPALSASVGDRVTITCRASQDINDWLAWYQHKPGKAPKLLIYDASSLESGVPSRFSGSGSGTEFTLTISSLQPDDFATYYCQQSYSTPQVTFGQGTRLEIK |
